Results from patent US20240041994A1, “CMV VACCINE AND METHOD OF MAKING AND USING THE SAME” (priority 2017, published 2024).
Ends that are not written are not given here.

Target: T1, CD94-NKG2A (Homo sapiens, UniProt P13747+P26715+Q13241)
T1 construct: a linker into which cDNA encoding the extracellular domain of type II membrane proteins is inserted; Flag (N); CD8 leader (N); made in house; host or cells: 293T cells for the Fc fusion proteins; mouse RMA-S transfectants for HLA-E and B2M
Test: not given
Details: peptide bound to HLA-E; cited from earlier work

T1 sequence (P61769 21-119): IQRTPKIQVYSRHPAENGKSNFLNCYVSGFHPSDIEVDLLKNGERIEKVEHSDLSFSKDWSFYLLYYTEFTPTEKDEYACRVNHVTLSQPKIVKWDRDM
T1 sequence (P26715 94-233): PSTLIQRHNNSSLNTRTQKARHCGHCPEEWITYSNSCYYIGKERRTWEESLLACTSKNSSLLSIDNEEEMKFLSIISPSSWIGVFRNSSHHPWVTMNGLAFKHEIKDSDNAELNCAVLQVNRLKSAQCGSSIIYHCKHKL
T1 sequence (P13747 22-358): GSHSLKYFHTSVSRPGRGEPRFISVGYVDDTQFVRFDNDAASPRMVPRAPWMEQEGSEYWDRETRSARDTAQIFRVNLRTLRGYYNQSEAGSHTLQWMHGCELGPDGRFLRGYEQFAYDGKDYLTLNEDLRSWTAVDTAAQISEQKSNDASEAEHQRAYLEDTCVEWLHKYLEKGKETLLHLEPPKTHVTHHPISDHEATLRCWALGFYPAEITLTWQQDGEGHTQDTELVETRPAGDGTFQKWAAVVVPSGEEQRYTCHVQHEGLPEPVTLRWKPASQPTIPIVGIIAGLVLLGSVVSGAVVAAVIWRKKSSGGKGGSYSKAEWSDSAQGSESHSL
T1 sequence (Q13241 32-179): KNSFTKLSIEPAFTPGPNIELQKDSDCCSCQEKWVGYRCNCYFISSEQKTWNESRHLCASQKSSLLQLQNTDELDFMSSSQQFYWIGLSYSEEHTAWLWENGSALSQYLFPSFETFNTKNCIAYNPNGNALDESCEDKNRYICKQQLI

Sequence | binding of HLA-E/peptide to CD94-NKG2A
VMAPRTLFL [HLA-G leader peptide] | bind both CD94-NKG2A and CD94-NKG2C (albeit with low affinity)

Target: T2, sHLA-E*01:03 (Homo sapiens, UniProt P13747)
T2 construct: A soluble construct of HLA-E*01:03 was constructed by removing the transmembrane and cytoplasmic domains; expressed in transfected cells; host or cells: human U-373MG cells, uninfected or infected with CMV strain AD169
Test: Identification of peptides eluted from soluble HLA-E of CMV-infected vs uninfected U-373MG cells by immunoaffinity purification and LC-MS/MS
Assay type: binding
Details: number of spectra for the peptide, LC-MS/MS identification of HLA-E ligands (Table 1)

Sequence | # Spec
VTGGGAMAGASTSAGR | 420
SASSATACTSGVMT | 439
SDEELVTTER | 406
SASSATACTSGVMTR | 439

Same assay, conditions: number of spectra found for the HCMV peptide listed as HLA-E ligand (Table 1)

Sequence | # Spec
SSVSGVRTPR (17) (also: PTM present) | 2
VLGPISGHVLK (79) | 14
PTYDELPSRPPQ (4) | 730
SVPAPRPSPISTAST (72) | $35
VWTSGSDSDEELVTTE (91) | 399
RSVTVEQPSTSAD (9) | 28
PNTYIHKTETD (60) | 221
VRTAADISSTLR (67) | 2
HRHLPVAD (82) | 139
VRTAADISSTLRSVPAPRPSPISTA (68) | 3
VLGPISGHV (78) | 14
PVTGEDTFSAHGKSD (52) | 615
APSQKSKRSVTVEQPSTSADGSN (7) | 21
VTFEFVPNTK (46) | 419
EAGGVGGSSGGGGGSGLLPAKRS (55) | 1211
ARERGEFGDEDEEQEND (22) | 351
VTVEQPSTSAD (13) | 30
GPGLDNDLMNEPMGLGGLGGGGGGGGKKH (43) | 312
DDDVWTSGSDSDEELVTTER (87) | 396
MDGDVRTAADISSTER (63) (MDGDVRTAADISSTLR) | 519
SQKSKRSVTVEQPSTSAD (8) | 23
VRTAADISSTLRSVPAPRPSP (66) | 3
SVTVEQPSTSA (12) | 29
ARERGEFGDEDEEQENDGEPR (21) | 351
AQGDDDVWTSGSDSDEELVTTER (85) | 393
PATLTAYDK (57) | 572

Target: T3, CD94-NKG2C (Homo sapiens, UniProt P13747+P26717+Q13241)
T3 construct: a linker into which cDNA encoding the extracellular domain of type II membrane proteins is inserted; Flag (N); CD8 leader (N); made in house; host or cells: 293T cells for the Fc fusion proteins; mouse RMA-S transfectants for HLA-E and B2M
T3 sequence (Q13241 32-179): as the sequence (Q13241 32-179) above
T3 sequence (P61769 21-119, further chain): as the sequence (P61769 21-119) above
T3 sequence (P13747 22-358): as the sequence (P13747 22-358) above
T3 sequence (P26717 94-231): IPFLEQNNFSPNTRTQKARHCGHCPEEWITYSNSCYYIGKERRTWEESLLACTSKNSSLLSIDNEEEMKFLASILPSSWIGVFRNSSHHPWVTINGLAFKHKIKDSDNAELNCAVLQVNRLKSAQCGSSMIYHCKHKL
Test: not given
Details: peptide bound to HLA-E; cited from earlier work

Sequence | binding of HLA-E/peptide to CD94-NKG2C
VMAPRTLFL [HLA-G leader peptide] | bind both CD94-NKG2A and CD94-NKG2C (albeit with low affinity)
